Seven molecules from publication PMC9122601, “A widespread family of WYL-domain transcriptional regulators co-localizes with diverse phage defence systems and islands” can be followed below.

The target in data set [1] is His6-BrxR-R17A from Escherichia fergusonii (Escherichia fergusonii ATCC 35469). Nature of the data set: SEC; analytical gel filtration, Superdex 200 Increase GL 5/150, 20 mM Tris-HCl pH 7.9, 150 mM NaCl, 0.175 ml/min; 50 μl samples with 5 μl of 1000 nM protein; oligomeric state from elution volume against calibration standards.
The target in data set [2] is BrxR from Escherichia fergusonii, untagged (Escherichia fergusonii ATCC 35469). The description is as above.
For data set [3], the target named is His6-BrxR from Escherichia fergusonii (Escherichia fergusonii ATCC 35469). The description is as above.
Data set [4] deals with T1, His6-BrxR (BrxR-Efer) (Escherichia fergusonii (plasmid pEFER), UniProt B7L3Y3 14-308).
T1 sequence: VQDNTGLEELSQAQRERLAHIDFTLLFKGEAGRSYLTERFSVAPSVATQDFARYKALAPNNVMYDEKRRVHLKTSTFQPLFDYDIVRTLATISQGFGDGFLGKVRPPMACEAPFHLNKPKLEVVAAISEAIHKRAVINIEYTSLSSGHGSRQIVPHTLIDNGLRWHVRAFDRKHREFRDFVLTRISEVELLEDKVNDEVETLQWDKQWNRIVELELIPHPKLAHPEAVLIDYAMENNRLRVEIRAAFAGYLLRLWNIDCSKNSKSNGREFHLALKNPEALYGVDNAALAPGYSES
Nature of the data set: EMSA; EMSA: 10 mM Tris-HCl pH 7.9, 150 mM KCl, 0.5 mM EDTA, 0.2 mM DTT, 0.1% Triton X-100, 13% glycerol (1x of 5x buffer), 1 ug poly(dI-dC) per 10 ul, 2500 fmol probe, 25 C 30 min; 7% native PAGE in 0.5x TBE. As to conditions: protein: recombinant; tags: N-terminal His6; chain copies: 2; label: 5' 6-FAM on reverse strand (primer TRB1068); blunt. Background: In EMSA bound probe runs differently from free probe, usually more slowly.

Data set [5] concerns the target T1, His6-BrxR (BrxR-Efer). Nature of the data set: EMSA; only non-specific binding at high protein; EMSA: 10 mM Tris-HCl pH 7.9, 150 mM KCl, 0.5 mM EDTA, 0.2 mM DTT, 0.1% Triton X-100, 13% glycerol (1x of 5x buffer), 1 ug poly(dI-dC) per 10 ul, 2500 fmol probe, 25 C 30 min; 7% native PAGE in 0.5x TBE. As to conditions: protein: recombinant; tags: N-terminal His6; chain copies: 2; label: 5' 6-FAM on reverse strand (primer TRB1068); blunt.

Residue numbers refer to the chain shown, from its start.

“His6-BrxR-R17A from Escherichia fergusonii (natural protein)” registered a stoichiometry N in data set [1] of 2.

In data set [2], “BrxR from Escherichia fergusonii, untagged (natural protein)” displayed a stoichiometry N of 2.

“His6-BrxR from Escherichia fergusonii (natural protein)” showed a stoichiometry N in data set [3] of 2.

B1: WT IR1-IR2 probe (R7, R-BOX1) (dsDNA)
DNA 1: GACGACTTGTTGATACTATGAAACCTACTGAAAAACAGTAGGTTGCTTGATGGCATTCAATCGATGGCTTAAGCTTTTGTCAGTGCGCA
DNA 2: TGCGCACTGACAAAAGCTTAAGCCATCGATTGAATGCCATCAAGCAACCTACTGTTTTTCAGTAGGTTTCATAGTATCAACAAGTCGTC
With B1, in the data set with His6-BrxR (BrxR-Efer) [4], the Kd came to 13 ± 2.7 nM.

B2: IR1c-IR2 probe (dsDNA)
DNA 1: B1 DNA 1 with G20C, A21C, A22C, A23C, T26C, A27C, T29C, G30C
DNA 2: B1 DNA 2 with C60G, A61G, T63G, A64G, T67G, T68G, T69G, C70G
With B2, the equilibrium dissociation constant (Kd) in the data set with His6-BrxR (BrxR-Efer) [4] came out at 24 ± 6.5 nM.

B3: IR1-IR2c probe (dsDNA)
DNA 1: B1 DNA 1 with A37C, G38C, T39C, A40C, G41C, G42C, T43C, T44C, G45C
DNA 2: B1 DNA 2 with C45G, A46G, A47G, C48G, C49G, T50G, A51G, C52G, T53G
Consider B3, for which, in the data set with His6-BrxR (BrxR-Efer) [4], the equilibrium dissociation constant (Kd) was found to be 85.5 ± 18.7 nM.

B4: IR1c-IR2c probe (dsDNA)
DNA 1: GACGACTTGTTGATACTATCCCCCCCCCCCAAAAACCCCCCCCCCCTTGATGGCATTCAATCGATGGCTTAAGCTTTTGTCAGTGCGCA
DNA 2: TGCGCACTGACAAAAGCTTAAGCCATCGATTGAATGCCATCAAGGGGGGGGGGGTTTTTGGGGGGGGGGGATAGTATCAACAAGTCGTC
On to B4, for which the binding result with His6-BrxR (BrxR-Efer) [5] was “no binding”.

As usually defined, the stoichiometry N is a count of units in the complex or per binding partner. The Kd is the constant that tells how readily two partners part at equilibrium.
